Results published in PMC9301129.

B1: UNC93B1-GFP, wild type [modified: N-glycosylated at N251 and N272; N-glycosylated at N251 and N272] [not stated] / TLR9-myc (in UNC93B1 KO iBMDMs) [not stated] (parent)
chain 1: MEVEPPLYPVAGAAGPQGDEDRHGVPDGPEAPLDELVGAYPNYNEEEEERRYYRRKRLGVVKNVLAASTGVTLTYGVYLGLLQMQLILHYDETYREVKYGNMGLPDIDSKMLMGINVTPIAALLYTPVLIRFFGTKWMMFLAVGIYALFVSTNYWERYYTLVPSAVALGMAIVPLWASMGNYITRMSQKYYEYSHYKEQDEQGPQQRPPRGSHAPYLLVFQAIFYSFFHLSFACAQLPMIYFLNNYLYDLNHTLINVQSCGTKSQGILNGFNKTVLRTLPRSKNLIVVESVLMAVAFLAMLMVLGLCGAAYRPTEEIDLRSVGWGNIFQLPFKHVRDFRLRHLVPFFIYSGFEVLFACTGFALGYGVCSMGLERLAYLLIAYSLGASASSVLGLLGLWLPRSVPLVAGAGLHLLLTLSLFFWAPAPRVLQHSWIFYFVAALWGVGSALNKTGLSTLLGILYEDKERQDFIFTIYHWWQAVAIFVVYLGSSLPMKAKLAVLLVTLVAAAASYLWMEQKLQQGLVPRQPRIPKPQHKVRGYRYLEEDNSDESDMEGEQGQGDCAEDEAPQAGPLGAEPAGPCRKPCPYEQALGGDGPEEQ
chain 2: LGTLPAFLPCELKPHGLVDCNWLFLKSVPRFSAAASCSNITRLSLISNRIHHLHNSDFVHLSNLRQLNLKWNCPPTGLSPLHFSCHMTIEPRTFLAMRTLEELNLSYNGITTVPRLPSSLVNLSLSHTNILVLDANSLAGLYSLRVLFMDGNCYYKNPCTGAVKVTPGALLGLSNLTHLSLKYNNLTKVPRQLPPSLEYLLVSYNLIVKLGPEDLANLTSLRVLDVGGNCRRCDHAPNPCIECGQKSLHLHPETFHHLSHLEGLVLKDSSLHTLNSSWFQGLVNLSVLDLSENFLYESITHTNAFQNLTRLRKLNLSFNYRKKVSFARLHLASSFKNLVSLQELNMNGIFFRLLNKYTLRWLADLPKLHTLHLQMNFINQAQLSIFGTFRALRFVDLSDNRISGPSTLSEATPEEADDAEQEELLSADPHPAPLSTPASKNFMDRCKNFKFTMDLSRNNLVTIKPEMFVNLSRLQCLSLSHNSIAQAVNGSQFLPLTNLQVLDLSHNKLDLYHWKSFSELPQLQALDLSYNSQPFSMKGIGHNFSFVTHLSMLQSLSLAHNDIHTRVSSHLNSNSVRFLDFSGNGMGRMWDEGGLYLHFFQGLSGLLKLDLSQNNLHILRPQNLDNLPKSLKLLSLRDNYLSFFNWTSLSFLPNLEVLDLAGNQLKALTNGTLPNGTLLQKLDVSSNSIVSVVPAFFALAVELKEVNLSHNILKTVDRSWFGPIVMNLTVLDVRSNPLHCACGAAFVDLLLEVQTKVPGLANGVKCGSPGQLQGRSIFAQDLRLCLDEVLSWDCFGLSLLAVAVGMVVPILHHLCGWDVWYCFHLCLAWLPLLARSRRSAQTLPYDAFVVFDKAQSAVADWVYNELRVRLEERRGRRALRLCLEDRDWLPGQTLFENLWASIYGSRKTLFVLAHTDRVSGLLRTSFLLAQQRLLEDRKDVVVLVILRPDAHRSRYVRLRQRLCRQSVLFWPQQPNGQGGFWAQLSTALTRDNRHFYNQNFCRGPTAE

Variants of: B1
Test: co-immunoprecipitation from isolated phagosomes, band densitometry
Details: with TLR9-myc (in UNC93B1 KO iBMDMs), means ± SD of two independent experiments, parent: 1, read off a plot

Compared with chain 1 N251Q, chain 1 N272Q is lower in ratio to parent: 1.3 A.U for the first, 1.1 A.U for the second.
